From doi:10.1101/2023.05.09.539743 (bioRxiv, 2023) come the findings set out here.

The target in this assay is T1, His-ARS2^147-871 (human, UniProt Q9BXP5-4 147-871).
T1 sequence (looked up): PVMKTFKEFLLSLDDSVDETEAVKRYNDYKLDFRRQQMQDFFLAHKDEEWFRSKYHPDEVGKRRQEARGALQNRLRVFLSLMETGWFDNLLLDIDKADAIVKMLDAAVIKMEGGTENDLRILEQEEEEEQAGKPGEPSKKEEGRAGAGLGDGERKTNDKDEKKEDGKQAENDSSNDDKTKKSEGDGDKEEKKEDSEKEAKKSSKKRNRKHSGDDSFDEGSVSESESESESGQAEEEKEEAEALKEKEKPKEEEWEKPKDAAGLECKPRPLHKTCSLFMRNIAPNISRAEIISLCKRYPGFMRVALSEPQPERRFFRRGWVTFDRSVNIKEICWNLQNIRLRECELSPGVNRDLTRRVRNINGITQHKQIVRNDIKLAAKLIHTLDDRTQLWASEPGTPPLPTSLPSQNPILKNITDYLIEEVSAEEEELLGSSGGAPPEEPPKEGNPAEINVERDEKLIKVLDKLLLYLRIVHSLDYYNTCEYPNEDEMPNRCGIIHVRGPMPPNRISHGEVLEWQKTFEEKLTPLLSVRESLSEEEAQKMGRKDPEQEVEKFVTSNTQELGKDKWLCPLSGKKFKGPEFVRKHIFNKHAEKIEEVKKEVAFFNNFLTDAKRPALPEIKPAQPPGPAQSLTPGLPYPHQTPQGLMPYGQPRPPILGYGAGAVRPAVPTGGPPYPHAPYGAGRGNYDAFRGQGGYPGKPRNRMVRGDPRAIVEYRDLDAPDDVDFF
As to the kind of experiment: pull-down.

Turning to SSGLSPKEEGELEDGEISDDDNNSQ (domain or fragment, human, UniProt O60293 11-35, looked up) [His-MBP-Z1^11-35(WT)], the binding result is recorded as “binds”.
